# In doi:10.1101/2025.11.06.687013:
# Starred links: 1 amine or outer side, 2 acyl side, 3 side chain; linkers in the order of their positions; H or OH if unused. Non-standard residues stand in square brackets, D forms with d. No end group written: not given here. βAsp = O=C(O)[C@H](CC(=O)[*:2])N[*:1]
# Target: H-2K^b (mouse (endogenous in RMA-S))
# Assay: flow cytometry on cells
binder,measurement,value
I[βAsp]FDFPKL [ca3_(isoasp)],fold decrease of H-2Kb display against ca3,> 100 fold
